Experimental findings from article PMC10786891, “Massively parallel profiling of RNA-targeting CRISPR-Cas13d” are described below.

Where a chain is given by its changes, count along the chain named. In names and notes the source's numbering stands.

First the molecules themselves.
T1: EsCas13d, nuclease-dead (Eubacterium siraeum, UniProt B0MS50, R295A;H300A;R849A;H854A)
T1 sequence: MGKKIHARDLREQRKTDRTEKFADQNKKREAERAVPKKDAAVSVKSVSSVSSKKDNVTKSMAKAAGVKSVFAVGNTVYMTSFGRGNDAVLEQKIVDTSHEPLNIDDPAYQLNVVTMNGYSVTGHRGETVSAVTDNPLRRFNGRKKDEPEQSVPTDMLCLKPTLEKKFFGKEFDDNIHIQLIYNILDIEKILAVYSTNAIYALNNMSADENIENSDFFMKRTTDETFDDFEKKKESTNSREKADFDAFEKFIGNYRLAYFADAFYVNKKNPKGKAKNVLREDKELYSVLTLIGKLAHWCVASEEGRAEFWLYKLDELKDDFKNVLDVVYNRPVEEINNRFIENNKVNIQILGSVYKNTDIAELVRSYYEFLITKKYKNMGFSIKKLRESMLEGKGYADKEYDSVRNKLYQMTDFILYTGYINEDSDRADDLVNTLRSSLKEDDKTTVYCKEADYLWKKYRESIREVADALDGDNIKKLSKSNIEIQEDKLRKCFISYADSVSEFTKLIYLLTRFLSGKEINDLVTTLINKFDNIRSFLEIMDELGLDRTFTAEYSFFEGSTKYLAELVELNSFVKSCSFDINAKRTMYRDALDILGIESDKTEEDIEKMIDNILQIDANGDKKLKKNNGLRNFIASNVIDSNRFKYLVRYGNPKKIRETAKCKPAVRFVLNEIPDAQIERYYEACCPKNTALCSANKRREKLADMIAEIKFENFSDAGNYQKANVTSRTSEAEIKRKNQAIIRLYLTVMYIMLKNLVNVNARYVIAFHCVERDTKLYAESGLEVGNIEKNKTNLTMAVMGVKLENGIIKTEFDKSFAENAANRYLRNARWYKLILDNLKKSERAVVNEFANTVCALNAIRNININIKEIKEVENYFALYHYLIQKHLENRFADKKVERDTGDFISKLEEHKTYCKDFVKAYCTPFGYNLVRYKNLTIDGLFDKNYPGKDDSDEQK

B1: target 1 insU 3' of 13,insG 3' of 8 (mixed)
RNA 1: CACCCGUGCAAAAAUGCAGGGGUCUAAAACUGAGCGGAUAACCUCUCUAUGG
RNA 2: GGGAAUGGAUCCACAUCUACGAAUUCGUACCAUAGAGAGUGUUAUGCCGCUCACCGAGAUCGGAAGAGCACACGU
B2: target 1 insG 3' of 7,insU 3' of 5 (mixed)
RNA 1: B1 RNA 1
RNA 2: B1 RNA 2 with U40G, G41U, U43A, A44U, U45C, C48G, G49U
B3: target 1 A14G,C21A (mixed)
RNA 1: B1 RNA 1
RNA 2: GGGAAUGGAUCCACAUCUACGAAUUCGUACAAUAGAGGGGUUAUCCGCUCACCGAGAUCGGAAGAGCACACGU
B4: target 1 C2U,A16G (mixed)
RNA 1: B1 RNA 1
RNA 2: B3 RNA 2 with A31C, A36G, G38A, C50U
B5: target 1 U10C,G13U (mixed)
RNA 1: B1 RNA 1
RNA 2: B3 RNA 2 with A31C, G38A, G39U, U42C
B6: target 1 G15A,G17U (mixed)
RNA 1: B1 RNA 1
RNA 2: B3 RNA 2 with A31C, G35U, G37A, G38A
B7: target 1 G5A,G12A (mixed)
RNA 1: B1 RNA 1
RNA 2: B3 RNA 2 with A31C, G38A, G40A, G47A
B8: target 1 insA 3' of 15,insU 3' of 2 (mixed)
RNA 1: B1 RNA 1
RNA 2: B1 RNA 2 with G39A, U40G, G46C, C48G, G49C, C50U, U51C, C52U
B9: target 1 A9G,C21U (mixed)
RNA 1: B1 RNA 1
RNA 2: B3 RNA 2 with A31U, G38A, A43G
B10: target 1 insA 3' of 12,insG 3' of 10 (mixed)
RNA 1: B1 RNA 1
RNA 2: B1 RNA 2 with U40G, G41A, A44G, U45A, G46U
B11: target 1 insG 3' of 6,insA 3' of 3 (mixed)
RNA 1: B1 RNA 1
RNA 2: GGGAAUGGAUCCACAUCUACGAAUUCGUACCAUAGAGAGGUUAUCCGGCUACACCGAGAUCGGAAGAGCACACGU
B12: target 1 insU 3' of 12,insA 3' of 2 (mixed)
RNA 1: B1 RNA 1
RNA 2: B11 RNA 2 with A43U, U44A, C45U, G47C, A51C, C52A
B13: target 1 del3,del8 (mixed)
RNA 1: B1 RNA 1
RNA 2: GGGAAUGGAUCCACAUCUACGAAUUCGUACCAUAGAGAGGUUACCGCCACCGAGAUCGGAAGAGCACACGU
B14: target 1 C6U (mixed)
RNA 1: B1 RNA 1
RNA 2: B3 RNA 2 with A31C, G38A, C46U
B15: target 1 complement block 7-9 (mixed)
RNA 1: B1 RNA 1
RNA 2: B3 RNA 2 with A31C, G38A, A43U, U44A, C45G
B16: target 1 A1G,C22A (mixed)
RNA 1: B1 RNA 1
RNA 2: B3 RNA 2 with C30A, A31C, G38A, A51G
B17: target 1 insU 3' of 22,insG 3' of 9 (mixed)
RNA 1: B1 RNA 1
RNA 2: GGGAAUGGAUCCACAUCUACGAAUUCGUACUCAUAGAGAGGUUAGUCCGCUCACCGAGAUCGGAAGAGCACACGU
B18: target 1 insU 3' of 17,insA 3' of 7 (mixed)
RNA 1: B1 RNA 1
RNA 2: B1 RNA 2 with A36U, G37A, A38G, G39A, U40G, G46C, C47A
B19: target 1 insA 3' of 17,insA 3' of 5 (mixed)
RNA 1: B1 RNA 1
RNA 2: B1 RNA 2 with G37A, A38G, G39A, U40G, G46C, C48G, G49A
B20: target 1 insC 3' of 12,insA 3' of 5 (mixed)
RNA 1: B1 RNA 1
RNA 2: B1 RNA 2 with U40G, G41C, G46C, C48G, G49A
B21: target 1 insG 3' of 16,insA 3' of 8 (mixed)
RNA 1: B1 RNA 1
RNA 2: B1 RNA 2 with A38G, G39A, U40G, G46A
B22: target 1 insG 3' of 10,insG 3' of 6 (mixed)
RNA 1: B1 RNA 1
RNA 2: B1 RNA 2 with U40G, G41U, U43G, G46C, C48G
B23: target 1 C7U,A16G (mixed)
RNA 1: B1 RNA 1
RNA 2: B3 RNA 2 with A31C, A36G, G38A, C45U
B24: target 1 U8A,A18U (mixed)
RNA 1: B1 RNA 1
RNA 2: B3 RNA 2 with A31C, A34U, G38A, U44A
B25: target 1 insC 3' of 10,insC 3' of 3 (mixed)
RNA 1: B1 RNA 1
RNA 2: B11 RNA 2 with A43C, U44A, C45U, G47C, A51C
B26: target 1 insU 3' of 7,insA 3' of 6 (mixed)
RNA 1: B1 RNA 1
RNA 2: B11 RNA 2 with C46U, G47C, G48A, C49G, U50C, A51U
B27: target 1 G15C,G17C (mixed)
RNA 1: B1 RNA 1
RNA 2: B3 RNA 2 with A31C, G35C, G37C, G38A
B28: target 1 C6A,A18U (mixed)
RNA 1: B1 RNA 1
RNA 2: B3 RNA 2 with A31C, A34U, G38A, C46A
B29: target 1 insA 3' of 6,insG 3' of 4 (mixed)
RNA 1: B1 RNA 1
RNA 2: B11 RNA 2 with G47A, U50G, A51U
B30: target 1 insA 3' of 22,insG 3' of 7 (mixed)
RNA 1: B1 RNA 1
RNA 2: B17 RNA 2 with U31A, G45U, U46C, C47G
B31: target 1 insG 3' of 19,insU 3' of 9 (mixed)
RNA 1: B1 RNA 1
RNA 2: B17 RNA 2 with U31C, C32A, A33U, U34G, G45U
B32: target 1 insC 3' of 17,insU 3' of 12 (mixed)
RNA 1: B1 RNA 1
RNA 2: B1 RNA 2 with A36C, G37A, A38G, G39A, U40G, A44U, U45A, G46U
B33: target 1 insA 3' of 19,insG 3' of 16 (mixed)
RNA 1: B1 RNA 1
RNA 2: B1 RNA 2 with G35A, A36G, G37A, A38G, U40A, U42G, A44U, U45A, G46U

The target in this data set is T1, EsCas13d, nuclease-dead. In words: crRNA (strand 1, pre-loaded); Mg2+; 40 mM Tris-HCl pH 7.5, 150 mM NaCl, 6 mM MgCl2, 1 mM DTT, 0.1% Tween-20, 0.2 mg/ml BSA; 25 C; 10 min per concentration, then washed. Conditions: tags: His6-TwinStrep-SUMO cleaved; N-terminal SNAP kept (SNAP-Surface 488); label: 3' end held by stalled T7 RNA polymerase.
B1: the Kd came to 11.9 ± 1.3 nM.

Consider B2, for which the Kd turned out to be 13.8 ± 1 nM.

B3 displayed a Kd of 46 ± 12 nM.

Take B4: binding was put at a Kd of 39.3 ± 2.7 nM.

In turn, B5 had a Kd of 71 ± 18 nM.

B6 had a Kd of 73 ± 13 nM.

In the case of B7, the Kd amounted to 10.2 ± 1.5 nM. Compared with the last molecule, the Kd is about 7.2-fold lower.

B8 came in with an equilibrium dissociation constant (Kd) of 6.5 ± 0.4 nM. This Kd is about 1.6-fold lower than that of the molecule before.

Turning to B9, the Kd turned out to be 9 ± 0.5 nM.

B10 came in with a Kd of 29.2 ± 3.2 nM.

The molecule B11 came in with a Kd of 6.9 ± 0.4 nM.

In the case of B12, the Kd was 7 ± 0.4 nM.

B13: the Kd was 7.05 ± 0.33 nM.

B14 displayed a Kd of 8.5 ± 0.4 nM.

Molecule B15 registered a Kd of 6.54 ± 0.23 nM.

For the molecule B16, the affinity, expressed as Kd, was 12 ± 0.7 nM.

As for B17, binding was characterised by a dissociation constant (Kd) of 76 ± 12 nM.

As for B18, binding was put at a Kd of 14.2 ± 1.2 nM.

B19: binding was characterised by a dissociation constant (Kd) of 10.6 ± 1.1 nM.

B20 registered a Kd of 10.4 ± 1.1 nM.

As for B21, the Kd worked out at 22.1 ± 1.8 nM.

For the molecule B22, the Kd worked out at 22.2 ± 1.5 nM.

Consider B23, for which the Kd worked out at 29.9 ± 2.6 nM.

For the molecule B24, binding was characterised by a dissociation constant (Kd) of 78 ± 23 nM.

On to B25, for which the Kd turned out to be 20.2 ± 3.1 nM.

Regarding B26, the Kd was 23.7 ± 0.8 nM.

B27 came in with a Kd of 50 ± 10 nM. This Kd is about 2.1-fold higher than that of the molecule before.

For B28, the Kd turned out to be 26.7 ± 2.1 nM.

Consider B29, for which the Kd came to 12.7 ± 0.6 nM. Against the preceding molecule, the Kd is about 2.1-fold lower.

With B30, the Kd was determined as 8.62 ± 0.35 nM.

Molecule B31 displayed a Kd of 92 ± 34 nM.

On to B32, for which the Kd was 42 ± 6 nM.

In the case of B33, the Kd is 46 ± 6 nM.
